These results are taken from US20240400677A1 (ELECTRA THERAPEUTICS, published 2024).

Assay [1] has as its target T1, human SIRPβ1 on CHO cells (co-transfected with DAP12) (human, UniProt O00241 30-398).
T1 construct: whole, on cells; co-transfected with DAP12; also called Human SIRPβ1 CHO
In words: flow cytometry. (In general: In flow cytometry, cells or beads pass a laser one at a time.)

Assay [2] concerns the target T2, human SIRPγ on stably transfected CHO cells (human, UniProt Q9P1W8 29-387).
T2 construct: also called Human SIRPγ CHO
Briefly: flow cytometry, myc-scFv PPE. The gist of the method:
(§1)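 Read-out is median fluorescence intensity for each antibody concentration, measured after a titration series is bound to stably transfected CHO cells and stained with labelled anti-human IgG. The scFv data come from myc-tagged crude PPE, also run on parental CHO-K1, where fold change below 2.0 denotes no binding.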

In assay [3] the target is T3, cynomolgus monkey SIRPγ on CHO cells (cynomolgus monkey, UniProt Q9P1W8 29-386 (human entry)).
T3 construct: also called Cyno SIRPγ CHO
T3 chain: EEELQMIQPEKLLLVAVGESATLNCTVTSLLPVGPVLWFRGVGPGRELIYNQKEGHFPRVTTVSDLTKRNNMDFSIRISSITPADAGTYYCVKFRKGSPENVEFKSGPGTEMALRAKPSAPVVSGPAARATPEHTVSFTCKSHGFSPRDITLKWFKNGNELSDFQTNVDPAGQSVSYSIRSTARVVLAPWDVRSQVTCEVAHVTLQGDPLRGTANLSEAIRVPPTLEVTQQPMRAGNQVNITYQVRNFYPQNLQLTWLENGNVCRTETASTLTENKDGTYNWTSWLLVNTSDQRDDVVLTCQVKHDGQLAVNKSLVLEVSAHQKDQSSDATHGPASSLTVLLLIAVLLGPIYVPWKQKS
In words: flow cytometry, myc-scFv PPE. The gist of the method: as §1

For assay [4], the target named is T4, cynomolgus monkey SIRPα on CHO cells (cynomolgus monkey, UniProt A0A2K5VYQ9 31-507).
T4 construct: whole, on cells; also called Cyno SIRPα CHO
T4 sequence: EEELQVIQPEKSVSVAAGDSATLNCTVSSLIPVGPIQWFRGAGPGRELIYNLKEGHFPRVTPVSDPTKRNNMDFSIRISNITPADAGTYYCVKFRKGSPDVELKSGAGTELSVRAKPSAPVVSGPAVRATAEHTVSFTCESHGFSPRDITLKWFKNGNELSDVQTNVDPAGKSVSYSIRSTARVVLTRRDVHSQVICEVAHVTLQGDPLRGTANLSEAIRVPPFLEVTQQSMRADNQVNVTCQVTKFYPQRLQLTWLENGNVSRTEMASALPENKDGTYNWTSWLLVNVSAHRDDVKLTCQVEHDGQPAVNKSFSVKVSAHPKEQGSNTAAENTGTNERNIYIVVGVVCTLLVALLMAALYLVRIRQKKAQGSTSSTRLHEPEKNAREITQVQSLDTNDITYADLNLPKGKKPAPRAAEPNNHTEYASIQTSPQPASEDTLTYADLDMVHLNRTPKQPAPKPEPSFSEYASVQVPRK
Briefly: flow cytometry, myc-scFv PPE. The gist of the method:
as §1

The target in assay [5] is T5, human SIRPγ-His monomer protein (human, UniProt Q9P1W8 29-360).
T5 construct: also called hSIRPγ
Briefly: BLI Octet, V5-scFv PPE captured, SIRP-His 500 nM.

Assay [6] addresses T6, human SIRPγ on primary human T-cells (human, UniProt Q9P1W8 29-387).
T6 construct: endogenous SIRPγ of donor T-cells; also called SIRPγ on T-cells
In words: flow cytometry, dye-conjugated antibody, human whole blood (3 donors). As for the experimental part: Selected antibodies and an isotype control were tested for binding to human T-cells, B-cells, NK cells, monocytes, and granulocytes. […] Up to 50 μg/mL fluorescent dye-conjugated antibodies or isotype controls were incubated with whole blood from three normal donors. T-cells were identified as the CD14−, CD20−, SSClow, and CD3+ population or further identified to be CD4+ or CD8+ populations. B-cells were identified as the CD14−, SSClow, and CD20+ population. NK cells were identified as CD14−, CD20−, CD3−, and CD56+. Monocytes were identified as the SSClow and CD14+ population. Granulocytes were identified as the CD14−, CD20−, CD3−, SSChigh population. Graphs depict the median fluorescence intensity (MFI) of each population.

In assay [7] the target is T7, cynomolgus monkey SIRPγ-His monomer protein (cynomolgus monkey, UniProt Q9P1W8 29-359 (human entry), limits assumed).
T7 construct: also called Cyno SIRPγ; Cyno SIRPγ-His
T7 chain: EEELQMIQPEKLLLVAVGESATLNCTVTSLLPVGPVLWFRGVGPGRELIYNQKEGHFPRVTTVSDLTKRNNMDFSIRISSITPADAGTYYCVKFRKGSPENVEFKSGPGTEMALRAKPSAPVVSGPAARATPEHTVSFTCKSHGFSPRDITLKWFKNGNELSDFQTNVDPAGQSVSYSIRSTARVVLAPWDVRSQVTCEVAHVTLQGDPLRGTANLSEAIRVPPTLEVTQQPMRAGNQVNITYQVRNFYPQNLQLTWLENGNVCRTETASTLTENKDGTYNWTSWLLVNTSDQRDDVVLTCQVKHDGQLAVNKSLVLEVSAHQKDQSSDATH
Briefly: BLI Octet, antibody on AHC, SIRP-His monomer, 1:1 model. As for the experimental part:
(§2) Select antibodies from Example 1 of the disclosure were tested for their affinities to human SIRPγ, cynomolgus monkey SIRPγ, human SIRPαV1, human SIRPαV2, and human SIRPβ1 using a biolayer interferometry (BLI) Octet system (Pall ForteBio). Each antibody was immobilized on a biosensor tip by an anti-human IgG capture (AHC). […] The biosensors were then exposed to wash buffer to measure off-rate kinetics. The resulting kinetic data were analyzed and fitted using a 1:1 binding model.

In assay [8] the target is T5, human SIRPγ-His monomer protein. The assay is described as above. As to the method: as §2
Assay [9] concerns the target T8, extracellular binding domain of human SIRPγ (plate-coated) (human, UniProt Q9P1W8 29-360).
T8 construct: also called hSIRPγ
In words: ELISA, coated SIRP ECD (2 µg/mL), anti-human IgG, luminescence. The gist of the method:
(§3)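 Plate-coated SIRP extracellular domain (2 μg/mL), blocked, then exposed to purified antibodies in titration, after transient expression in Expi293F cells for 5 days and Protein A purification. Bound antibody is detected with anti-human IgG and a chemiluminescent substrate, and reported as relative luminescence units.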

Assay [10] addresses T9, human SIRPβ1-His monomer protein (human, UniProt O00241 30-371, limits assumed). Briefly: BLI. As for the experimental part: as §2
Assay [11] addresses T7, cynomolgus monkey SIRPγ-His monomer …. Briefly: BLI Octet, captured scFv PPE, cyno SIRP. The gist of the method: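 Bio-layer interferometry used biotinylated anti-V5 on streptavidin sensors to capture V5-tagged scFv from crude periplasmic extract. Monomeric His-tagged SIRP protein at 500 nM was associated, then dissociated in wash buffer. Off-rate (kdis) was analyzed from the kinetic traces.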
Background: In BLI a coated tip is dipped into the sample, and binding shifts an interference pattern.

Assay [12] deals with T9, human SIRPβ1-His monomer protein. In words: BLI Octet, V5-scFv PPE captured, SIRP-His 500 nM.
Assay [13] has as its target T4, cynomolgus monkey SIRPα on CHO cells. In words: flow cytometry.
Assay [14] concerns the target T10, human SIRPα V2-His monomer protein (human, UniProt P78324 31-370, limits assumed).
T10 construct: the V2 allele differs from the canonical UniProt P78324 entry
In words: BLI Octet, V5-scFv PPE captured, SIRP-His 500 nM.

For assay [15], the target named is T11, Human SIRPαV2 (plate-coated extracellular domain) (Homo sapiens, UniProt P78324).
T11 construct: extracellular domain
In words: ELISA, coated SIRP ECD (2 µg/mL), anti-human IgG, luminescence. The gist of the method: as §3
A general note: In an ELISA, binding on a coated surface is turned into a signal by an enzyme label.

The target of assay [16] is T10, human SIRPα V2-His monomer protein. In words: BLI. As to the method:
as §2

T9 sequence (O00241 30-371 limits assumed): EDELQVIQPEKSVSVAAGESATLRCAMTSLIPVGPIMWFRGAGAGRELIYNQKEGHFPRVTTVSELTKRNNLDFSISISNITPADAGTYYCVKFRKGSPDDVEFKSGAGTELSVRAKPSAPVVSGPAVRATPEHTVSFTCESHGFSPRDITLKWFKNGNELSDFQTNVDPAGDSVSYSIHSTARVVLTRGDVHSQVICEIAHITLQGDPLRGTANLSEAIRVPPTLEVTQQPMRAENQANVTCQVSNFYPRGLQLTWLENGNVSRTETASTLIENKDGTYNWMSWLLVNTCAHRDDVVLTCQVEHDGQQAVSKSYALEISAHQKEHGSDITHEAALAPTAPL
T2 sequence (Q9P1W8 29-387 limits assumed): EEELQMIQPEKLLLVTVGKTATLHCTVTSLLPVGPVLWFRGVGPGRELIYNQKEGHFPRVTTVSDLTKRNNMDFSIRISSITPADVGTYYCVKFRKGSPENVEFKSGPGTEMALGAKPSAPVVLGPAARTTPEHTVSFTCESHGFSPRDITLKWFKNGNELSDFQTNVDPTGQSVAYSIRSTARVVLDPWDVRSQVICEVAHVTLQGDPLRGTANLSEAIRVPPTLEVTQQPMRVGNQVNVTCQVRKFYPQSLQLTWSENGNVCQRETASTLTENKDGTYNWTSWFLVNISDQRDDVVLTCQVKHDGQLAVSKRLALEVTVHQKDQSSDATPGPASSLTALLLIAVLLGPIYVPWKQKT
T5 sequence (Q9P1W8 29-360 limits assumed): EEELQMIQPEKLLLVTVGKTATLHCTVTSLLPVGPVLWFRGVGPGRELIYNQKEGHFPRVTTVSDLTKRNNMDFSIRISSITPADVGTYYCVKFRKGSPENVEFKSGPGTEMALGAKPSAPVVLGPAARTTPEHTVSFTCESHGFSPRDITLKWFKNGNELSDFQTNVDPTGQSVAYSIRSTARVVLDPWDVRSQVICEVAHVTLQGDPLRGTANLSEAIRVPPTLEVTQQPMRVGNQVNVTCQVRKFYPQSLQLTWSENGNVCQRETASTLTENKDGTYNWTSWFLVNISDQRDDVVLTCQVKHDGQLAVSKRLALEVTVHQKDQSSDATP
T10 sequence (P78324 other isoform, or with tags, fused parts or gaps limits assumed): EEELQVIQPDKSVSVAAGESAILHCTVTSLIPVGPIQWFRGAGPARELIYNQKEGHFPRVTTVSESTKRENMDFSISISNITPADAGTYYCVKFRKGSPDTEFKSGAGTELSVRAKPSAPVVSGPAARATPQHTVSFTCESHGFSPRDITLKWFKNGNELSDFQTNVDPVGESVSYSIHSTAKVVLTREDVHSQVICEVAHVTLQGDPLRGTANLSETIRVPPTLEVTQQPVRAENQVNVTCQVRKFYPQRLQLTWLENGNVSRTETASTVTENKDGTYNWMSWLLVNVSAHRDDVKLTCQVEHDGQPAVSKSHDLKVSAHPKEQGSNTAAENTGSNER
T8 sequence (Q9P1W8 29-360 limits assumed): as the sequence (Q9P1W8 29-360 limits assumed) above
T11 sequence (P78324 other isoform, or with tags, fused parts or gaps limits assumed): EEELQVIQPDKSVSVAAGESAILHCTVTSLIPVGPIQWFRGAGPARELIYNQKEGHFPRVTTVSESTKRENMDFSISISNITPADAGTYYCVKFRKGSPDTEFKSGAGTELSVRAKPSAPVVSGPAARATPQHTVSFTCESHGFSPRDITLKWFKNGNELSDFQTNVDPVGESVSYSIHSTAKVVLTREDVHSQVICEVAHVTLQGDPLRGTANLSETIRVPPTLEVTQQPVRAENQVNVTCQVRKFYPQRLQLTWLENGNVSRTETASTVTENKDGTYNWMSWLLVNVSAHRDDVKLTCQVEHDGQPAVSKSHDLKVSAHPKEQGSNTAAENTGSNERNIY
T1 sequence (O00241 30-398): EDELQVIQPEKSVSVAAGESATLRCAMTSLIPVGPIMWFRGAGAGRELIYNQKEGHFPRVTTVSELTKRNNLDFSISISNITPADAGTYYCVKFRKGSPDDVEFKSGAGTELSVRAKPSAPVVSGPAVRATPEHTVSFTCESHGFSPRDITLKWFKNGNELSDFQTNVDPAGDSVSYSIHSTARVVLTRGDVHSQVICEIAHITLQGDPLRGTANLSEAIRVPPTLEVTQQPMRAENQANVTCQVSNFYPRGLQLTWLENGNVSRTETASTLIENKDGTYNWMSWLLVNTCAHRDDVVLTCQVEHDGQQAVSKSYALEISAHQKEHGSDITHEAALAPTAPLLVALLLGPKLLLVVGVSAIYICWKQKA
T6 sequence (Q9P1W8 29-387 limits assumed): as the sequence (Q9P1W8 29-387 limits assumed) above

B1: Antibody 19 (scFv, V domains shown)
VH: QVQLVQSGAEVKKPGASVKVSCKASGYTFTAYYMHWVRQAPGQGLEWMGIINPSGGSTSYAQKFQGRVTMTRDTSTSTVYMELSSLRSEDTAVYYCARDSGWYAPGYYYGMDVWGQGTTVTVSS
VL: DIQMTQSPSSLSASVGDRVTITCRASESISHWLAWYQQKPGKAPKLLIYGASTLQSGVPSRFSGSGSGTDFTLTISSLQPEDFATYYCQQSYTPPLTFGGGTKVEIK
notes: scFv in crude PPE, V5/myc-tagged
B1: the binding result in assay [1] is on record as “no binding (tested: fold change <2.0)”. The “MFI fold change over parental CHO” value was found to be 43.3 fold in [2], 36.6 fold in assay [3] and 2.01 fold in assay [4]. In addition, in assay [5], the kdis is less than 0.001 s⁻¹.

B2: Antibody 8 (antibody, V domains shown)
VH: QVQLVQSGAEVKKPGASVKVSCKASGYTFTGYHIHWVRQAPGQGLEWMGWINPNSGGTNYAQKFQGRVTMTRDTSINTAYMELNRLRSDDTAVFYCARERVGYCSRPSCLDDLNIWGQGTMVTVSS
VL: DIQMTQSPSTLSASVGDRVTITCRASQSISSWLAWYQQKPGKAPKLLIYKASSLETGVPSRFSGSGSGTEFTLTISSLQPDDFATYYCQQYDSYYTFGQGTKLEIK
As for B2, the EC50 (read off the curve) – broadly, the concentration that produces a half-maximal response – in [6] was approximately 0.1 µg/mL; in assay [9], approximately 0.04 µg/mL. In addition, the Kd (in general, the free concentration of one partner at which half of the binding sites on the other are occupied at equilibrium, for simple one-to-one binding) in [7] amounted to 8.01 nM; in [8], 2.07 nM. The binding result in assay [10] is recorded as “no binding (tested: 300 nM)”.

B3: Antibody 22 (scFv, V domains shown)
VH: QVQLVQSGAEVKKPGASVKVSCKASGYTFTSHDINWVRQAPGQGLEWMGISNPSGGSTYYAQKFQGRVTMTRDTSTSTVYMELSSLRSEDTAVYYCASSRRYWNGAFDYWGQGTLVTVSS
VL: not shown
notes: as for B1
Regarding B3, the binding result in assay [11] is listed as “binds”. In addition, the “MFI fold change over parental CHO” value in [2] is 3.17 fold; in [3], 8.24 fold. Moreover, the kdis in [12] and in assay [5] was less than 0.001 s⁻¹ each time.

B4: Antibody 28 (scFv, V domains shown)
VH: QVQLVQSGAEVKKPGASVKVSCKASGYTFTSYNIHWVRQAPGQGLEWMGWISAYNGNTNYAQKLQGRVTMTRDTSTSTVYMELSSLRSEDTAVYYCALDGGQLGVAFDIWGQGTMVTVSS
VL: DIQMTQSPSSLSASVGDRVTITCRASQGISNWLAWYQQKPGKAPKLLIYDASNLDAGVPSRFSGSGSGTDFTLTISSLQPEDFATYYCQQANSLPLTFGGGTKVEIK
notes: as for B1
On to B4, for which the figures for the binding result in assay [11] and in [13] were “binds” and “no binding (tested: fold change <2.0)”, respectively. Further, the “MFI fold change over parental CHO” value in [2] came to 46.5 fold; in [3] it was 24 fold. Besides, the kdis in [14] was 0.001 to 0.01 s⁻¹; in [12], less than 0.001 s⁻¹; in assay [5], 0.001 to 0.01 s⁻¹.

B5: Antibody 7 (antibody, V domains shown)
VH: QVQLVESGGGVVQPGRSLRLSCAASGFTFSNYGMHWVRQAPGKGLEWVAFIWYDGSNKNYADSVKGRFTISRDNPTNTLYLQMNSLRAEDTAVYYCAREEQWLDYWGQGTLVTVSS
VL: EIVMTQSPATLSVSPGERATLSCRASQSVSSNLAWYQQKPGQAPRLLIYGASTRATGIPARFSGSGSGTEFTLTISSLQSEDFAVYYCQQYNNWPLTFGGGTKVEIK
On to B5, for which the Kd in [7] is 2200 nM; in [8], 296 nM. The “EC50 (read off the curve)” value in assay [9] is approximately 0.3 µg/mL. In addition, the binding result in assay [15] is reported as “no binding (tested: about 40 µg/mL)”; in [16] it was “no binding (tested: 300 nM)”; in assay [10], “no binding (tested: 300 nM)”.
